Experimental data from the supplement of paper PMC10567573.

B1: ETS1 (parent)
chain: YVRDRADLNKDKPVIPAAALAGYT
B2: CLCN6 (parent)
chain: MAGCRGSLCCCCRWCCCCGERETR

Variants of: B1
Assay: protein stability index of a GFP-peptide fusion (GPS, HEK-293T) (PSI 1-6); higher = more stable
Details: c terminus: a fixed tail appended
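Further: lentivirally expressed fusions sorted by FACS into six bins by GFP to DsRed ratio, PSI derived from sequencing read proportions per bin multiplied by bin number.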

Row | Variant | protein stability index
1 | D7R | 3.02
2 | D7P | 3.16
3 | D7I | 3.04
4 | L8V | 2.31
5 | L8T | 2.44
6 | L8R | 1.88
7 | L8Y | 2.9
8 | L8I | 2.64
9 | L8W | 2.23
10 | Y1E | 4.38
11 | Y1F | 2.22
12 | Y1M | 3.85
13 | Y1R | 3.88
14 | Y1V | 3.65
15 | Y1T | 4.03
16 | Y1D | 4.43
17 | A18T | 1.93
18 | A18Q | 2.84
19 | A18L | 2.88
20 | A18I | 3.08
21 | A18F | 1.83
22 | A18E | 1.88
23 | A19E | 1.91
24 | A19S | 1.86

Row | Variant | protein stability index
25 | A19W | 2.98
26 | A19P | 2.04
27 | A19N | 2.17
28 | A19I | 2.14
29 | A19G | 2.62
30 | A19D | 2.07
31 | D11Y | 2.59
32 | D11N | 2.91
33 | D11T | 2.16
34 | D11E | 2.5
35 | A17M | 1.38
36 | A17Q | 1.87
37 | A17W | 3.98
38 | A17H | 2.15
39 | A17C | 2.97
40 | A17V | 1.63
41 | K10T | 2.67
42 | K10S | 1.59
43 | K10D | 2.58
44 | K10L | 2.62
45 | K10R | 2.24
46 | K10M | 2.32
47 | K10A | 2.58
48 | K10Q | 2.55

Row | Variant | protein stability index
49 | K10H | 2.18
50 | G22Q | 2.12
51 | G22H | 1.63
52 | G22P | 2.01
53 | G22W | 2.55
54 | G22K | 2.18
55 | G22S | 1.66
56 | G22R | 1.69
57 | V14S | 2.84
58 | V14H | 2.23
59 | V14D | 2.17
60 | V14F | 2.99
61 | V14T | 2.66
62 | V14R | 2.67
63 | V14A | 1.73
64 | V14C | 2.54
65 | Y23F | 2.21
66 | Y23E | 2.3
67 | Y23I | 2.53
68 | Y23R | 1.89
69 | Y23K | 1.46
70 | Y23H | 2.18
71 | Y23G | 1.73
72 | P16G | 1.93

Row | Variant | protein stability index
73 | P16L | 2.52
74 | P16A | 3.14
75 | P16W | 2.19
76 | P16R | 3.04
77 | P16V | 2.44
78 | P16K | 2.13
79 | P16Q | 2.37
80 | P16C | 2.57
81 | P16M | 2.56
82 | P16T | 2.14
83 | P13K | 2.4
84 | P13N | 2.46
85 | P13H | 2.36
86 | P13I | 1.88
87 | P13C | 1.8
88 | P13L | 2.82
89 | P13M | 1.95
90 | P13F | 2.85
91 | P13T | 2.4
92 | R3G | 2.08
93 | R3N | 2.43
94 | R3M | 1.52
95 | R3P | 2.43
96 | R3I | 1.66

Row | Variant | protein stability index
97 | R3A | 2.24
98 | R3T | 2.3
99 | R3L | 1.55
100 | A21K | 2.08
101 | A21D | 2.4
102 | A21N | 2.14
103 | K12L | 2.47
104 | K12C | 2.13
105 | K12M | 1.9
106 | K12Y | 1.94
107 | K12S | 2.48
108 | K12F | 2.1
109 | K12G | 2.17
110 | V2F | 2.88
111 | V2C | 2.25
112 | V2K | 3.61
113 | V2R | 3.79
114 | V2G | 3.53
115 | V2P | 3
116 | L20K | 1.48
117 | L20W | 3.22
118 | L20H | 1.89
119 | L20P | 2.41
120 | L20S | 1.82

Row | Variant | protein stability index
121 | L20M | 2.45
122 | L20N | 1.94
123 | L20G | 2.02
124 | L20D | 1.55
125 | T24Y | 2.11
126 | T24A | 2.37
127 | T24H | 3.26
128 | T24P | 2.77
129 | T24D | 1.45
130 | T24E | 2.08
131 | T24R | 2.1
132 | T24G | 1.69
133 | T24W | 4.5
134 | T24K | 2.81
135 | I15P | 2.63
136 | I15E | 1.77
137 | I15M | 2.7
138 | I15Y | 1.95
139 | I15F | 1.8
140 | I15W | 2.77
141 | I15R | 1.86
142 | R5S | 2.23
143 | R5E | 2.36
144 | R5M | 1.56

Row | Variant | protein stability index
145 | R5W | 2.48
146 | R5V | 1.44
147 | R5F | 3.08
148 | A6S | 2.05
149 | A6Y | 2.28
150 | A6M | 3.35
151 | A6T | 1.88
152 | A6Q | 2.35
153 | A6D | 1.8
154 | D4G | 2.47
155 | D4I | 2.05
156 | D4N | 3.01
157 | D4S | 1.77
158 | D4T | 3.02
159 | D4Y | 3.23
160 | D4M | 3.45
161 | N9R | 3.34
162 | N9Y | 2.84
163 | N9T | 2.75
164 | N9L | 2.81
165 | N9A | 2.17
166 | N9M | 1.96

Variants of: B2
Assay: as above
Details: c terminus: a fixed tail appended

Row | Variant | protein stability index
167 | L8G | 2.1
168 | L8C | 1.54
169 | L8T | 1.42
170 | L8D | 1.17
171 | L8Q | 1.29
172 | L8R | 2.16
173 | L8E | 1.83
174 | L8V | 2.21
175 | L8I | 1.32
176 | L8K | 1.53
177 | L8S | 1.22
178 | L8F | 1.1
179 | L8N | 1.42
180 | C10Y | 1.88
181 | C10P | 1.45
182 | C10H | 1.69
183 | C10F | 1.36
184 | C10A | 1.42
185 | C10T | 3.66
186 | C10D | 1.24
187 | C10W | 1.69
188 | C10I | 1.79
189 | C10M | 1.28
190 | C10Q | 1.54

Row | Variant | protein stability index
191 | C10N | 1.7
192 | C10K | 2.07
193 | G6L | 1.32
194 | G6M | 1.41
195 | G6Q | 2.28
196 | G6I | 2.06
197 | G6T | 1.59
198 | G6R | 2.52
199 | G6S | 1.82
200 | G6A | 1.83
201 | G6F | 1.92
202 | G6E | 2.38
203 | G6W | 2.54
204 | G6Y | 1.89
205 | G6H | 1.86
206 | G6P | 1.58
207 | G6V | 1.37
208 | G6N | 1.72
209 | G6D | 2.36
210 | G3I | 1.44
211 | G3Q | 1.31
212 | G3V | 1.15
213 | G3E | 2.09
214 | G3D | 1.8

Row | Variant | protein stability index
215 | G3W | 1.9
216 | G3M | 1.99
217 | G3K | 1.52
218 | G3P | 1.27
219 | G3R | 2.1
220 | G3Y | 2.37
221 | G3F | 2.11
222 | G3N | 1.5
223 | S7Y | 1.43
224 | S7A | 1.5
225 | S7Q | 1.49
226 | S7W | 2.47
227 | S7L | 1.9
228 | S7I | 2.55
229 | S7C | 2.52
230 | S7P | 2.19
231 | S7F | 1.91
232 | S7H | 1.89
233 | S7R | 1.37
234 | S7N | 1.09
235 | S7K | 1.5
236 | S7T | 1.77
237 | R5Q | 2.33
238 | R5M | 1.38

Row | Variant | protein stability index
239 | R5K | 3.21
240 | R5P | 1.29
241 | R5Y | 3.45
242 | R5A | 1.98
243 | R5T | 1.44
244 | R5D | 1.38
245 | R5F | 2.41
246 | R5W | 1.98
247 | R5G | 1.49
248 | R5I | 1.92
249 | R5E | 1.34
250 | R5C | 2.33
251 | C12H | 1.52
252 | C12F | 3.72
253 | C12M | 2.19
254 | C12R | 1.95
255 | C12P | 1.66
256 | C12D | 2.35
257 | C12I | 2.88
258 | C12N | 2.9
259 | C12G | 3.2
260 | C12L | 2.86
261 | C12K | 1.89
262 | M1N | 1.56

Row | Variant | protein stability index
263 | M1Q | 1.65
264 | M1C | 1.98
265 | M1P | 2.12
266 | M1K | 2.14
267 | M1A | 1.91
268 | M1D | 1.78
269 | M1H | 2.14
270 | M1L | 1.39
271 | M1S | 1.56
272 | M1G | 1.86
273 | M1E | 1.22
274 | C4E | 2.58
275 | C4H | 2.07
276 | C4A | 1.84
277 | C4F | 2.4
278 | C4D | 2.24
279 | C4Y | 2.12
280 | C4L | 2.74
281 | C4G | 1.45
282 | C4R | 2.33
283 | C4W | 1.79
284 | C4I | 1.61
285 | C4K | 2.35
286 | C4S | 1.69

Row | Variant | protein stability index
287 | C11N | 2.15
288 | C11G | 3.4
289 | C11Y | 2
290 | C11R | 1.97
291 | C11A | 2.42
292 | C11I | 1.68
293 | C11M | 1.84
294 | C11S | 1.77
295 | C11W | 2.26
296 | C11Q | 1.9
297 | C11T | 2.24
298 | C11E | 2.27
299 | C11K | 1.17
300 | C11L | 3.23
301 | C11V | 1.41
302 | C11D | 2.23
303 | C11F | 2.72
304 | C11H | 1.3
305 | C9A | 3.15
306 | C9E | 1.45
307 | C9H | 3.07
308 | C9R | 1.28
309 | C9I | 1.76
310 | C9K | 1.77

Row | Variant | protein stability index
311 | C9N | 1.67
312 | C9F | 1.77
313 | C9Q | 2.64
314 | C9W | 2.65
315 | C9L | 1.64
316 | C9T | 2.16
317 | C9D | 1.18
318 | C9M | 2.65
319 | C9P | 1.69
320 | C9Y | 1.69
321 | C9G | 2.23
322 | A2I | 2.07
323 | A2F | 2.2
324 | A2Y | 1.98
325 | A2K | 2.68
326 | A2L | 1.33
327 | A2H | 2.81
328 | A2M | 1.73
329 | A2P | 1.37
330 | A2E | 2.77
331 | A2Q | 1.74
332 | A2G | 2.1
333 | A2V | 1.46
334 | A2D | 2
